# Measured values published in PMC7376022, “ARHGAP10, which encodes Rho GTPase-activating protein 10, is a novel gene for schizophrenia risk” (Translational Psychiatry, 2020).
# B1: GFP-tagged human ARHGAP10 (p.S490P) mutant (natural protein, UniProt A1A4S6 1-786, looked up)
# chain: MGLQPLEFSDCYLDSPWFRERIRAHEAELERTNKFIKELIKDGKNLIAATKSLSVAQRKFAHSLRDFKFEFIGDAVTDDERCIDASLREFSNFLKNLEEQREIMALSVTETLIKPLEKFRKEQLGAVKEEKKKFDKETEKNYSLIDKHLNLSAKKKDSHLQEADIQVEQNRQHFYELSLEYVCKLQEIQERKKFEFVEPMLSFFQGMFTFYHQGHELAKDFNHYKMELQINIQNTRNRFEGTRSEVEELMNKIRQNPKDHKRASQFTAEGYLYVQEKRPAPFGSSWVKHYCMYRKAAKKFNMIPFEHRSGGKLGDGEVFFLKECTKRHTDSIDRRFCFDIEAADRPGVSLTMQAFSEEERKQWLEALGGKEALSHSFNTAIIPRPEGNAQLDKMGFTIIRKCISAVETRGINDQGLYRVVGVSSKVQRLLSMLMDVKTCNEVDLENSADWEVKTITSALKQYLRSLPEPLMTYELHGDFIVPAKSGSPEPRVNAIHFLVHKLPEKNKEMLDILVKHLTNVSNHSKQNLMTVANLGVVFGPTLMRPQEETVAALMDLKFQNIVVEILIENHEKIFRTPPDTTFPEPTCLSASPPNAPPRQSKRQGQRTKRPVAVYNLCLELEDGDNPYPSKEDTPTSSLDSLSSPSPVTTAVPGPPGPDKNHLLADGGSFGDWASTIPGQTRSSMVQWLNPQSPTTTSSNSAVTPLSPGSSPFPFSPPATVADKPPESIRSRKARAVYPCEAEHSSELSFEIGAIFEDVQTSREPGWLEGTLNGKRGLIPQNYVKLL
# notes: also called ARHGAP10 (p.S490P)-GFP; source: expressed in HEK293 cells
# Biological target: T1, GST-RhoA (p.Q63L) (UniProt P61586 1-193, p.Q63L)
# T1 construct: RhoA, small GTPase, constitutively active mutant Q63L; also called GST-RhoA (Q63L); constitutively active RhoA; source: expressed in HEK293 cells
# T1 sequence (P61586 whole entry Q63L): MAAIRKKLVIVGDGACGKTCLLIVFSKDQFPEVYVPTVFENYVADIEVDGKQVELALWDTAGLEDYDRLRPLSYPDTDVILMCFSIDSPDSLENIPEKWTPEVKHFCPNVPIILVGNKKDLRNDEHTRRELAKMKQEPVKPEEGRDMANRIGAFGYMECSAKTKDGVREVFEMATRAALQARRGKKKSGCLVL
# Assay: pull-down; GST binding assay; GST-RhoA proteins as bait, GFP-tagged ARHGAP10 as prey; input and bound proteins on immunoblots, densitometry with Odyssey Clx; three independent experiments
binder,measurement,value
B1,band intensity percentage relative to the corresponding bait,15.8%
